The results in this text go back to a protein production outcome set (Wang et al. 2014).

This data set in a line: label from the status in PepcDB records.
As to “MAQGNPLTPEEIELLHAGDEENDNTDTLMVIRVPNDGSSATAISIPRDTYVHDENVGNLKINGVYRAYKNRKASELVNSGESDQKHIDELSKEAGRKALISSISDLTGVTVDHYAEVGLLGFVLLTNAVGGVDVCLNNDVYDEFSGADFKAGQQTLRDGQALAFVRQRHGLPRGDLDRIVRQQAFMASLVAKVLSSGTLTNPSKLSDLGEAVSRSVVIDKNWDVMSFANQLQNLAGGNVKFNTIPVTSIDGVGDYGESVVTVDKNQVHQFFDRLLNGNNGEETPTSDSEAPAENPHTSTTIDVLNATSTTGLASQVAGHLSAKHYTIGNIGNALEGMYHESQIVAADPNNEAVKAIAAELGGLPITQRNDLEHHHHHH”, the protein production entry was “failed”.

Take “MPGAMHDEPDHPELSITVPTLNEAEGLERFFAMLSAQQGVRFELVIADGGSTDGTPESARRLAAATPFAATVIETGRGRGRQMNAGAAAAAGDTLLFLHADCAFPDPLALRTALDAFTQTVAAGGSHRVAGHFRLRFERTDSAPSLPYYFYEWKARLHRPGCTHGDQGLLLGRRFFAEAGPFDESFPILEDVGLAERIAALGEWLLLPAEIVTSARRFEAEGLRERQTLNALLMNFAAMGWDPFLAELPRLYQSQDRAGRLLLGPVLRLIARLLRPLPRRERGRLWRETGRYVRANAWQIPFFLDVRRHFRQGTPVGEGETPRLDLHDRIFDRLTENGAGHRATALLVWIWFRLSLLREPLTPPAARNPEGNGSLEHHHHHH”: the protein production entry is listed as “not failed”.

Regarding “QQVTEPEETKETLQHLLDDTASGKMVQLTFVGESAEQPLITEMIRNFNVSVNILQGKISQTKDGAYGSLFIHIDGDEEEVQNVIRFINDKQVKAEVITNV”, the protein production entry is recorded as “not failed”.

“MASYFDEHDCEPSDPEQETRTNMLLELARSLFNRMDFEDLGLVVDWDHHLPPPAAKTVVENLPRTVIRGSQAELKCPVCLLEFEEEETAIEMPCHHLFHSSCILPWLSKTNSCPLCRYELPTDDDTYEEHRRDKARKQQQQHRLENLHGAMYT”: the protein production result is given as “failed”.

For “MSFLKPKTHIEKGDVVILYLSVSSMHAIEAVPEIVNKKGETIPHIFQTNYGSLKVENIIGVEYGSKVELSKGWAHVLQPTPELWTQTLPHRTQIIYTPDISMIIHQLEVRPGAVVVESGTGSGSLSHYFLRALKPTGHLHTFDFHEARADQARDEFRRHGIADFVTVYHRDVCNLGFGAELDGKADAVFLDLPAPDLAVPHAFKALKLSGGRFCSFSPCIEQSQRCIQELTKLGFNEIVSLEVLQQENVVKTRTLPVIDLEFLKLPKTDETTAATNALESKAPKEVKKYLTSSNPQTLPGHTGFLTFATLPPNIPKA”, the protein production result is “failed”.

For “MPTTDLRKAQLQIHFCVLLWGITAILGKLITLQALPLVWWRMLIVVVALALWPRVWRGLRGLSGRVVLGYCGIGALVALHWLTFYGAIKLANASVAATCIALAPVFTAVIEPLVTHRPFRPRELLFGLAVLPGVALVVGGVPDGMRAGVVVGAISAVFVGLFGSLNKRMVAHADPLTVTALELGAGTLTLTLLAPAMPLLLPALHGDLLVVPSLHDGVLLLALSLACTLLPFALALVALRHLSAYSVQLVTNLEPVYAIVLAIALLGEQRELTLQFYLGVAIILGAVFLHPVLERRRTVAHPELLGTAEAKNIVD”, the protein production entry is “failed”.

For the sequence “GWKVEYMAIADPQTIDQTPIVIVGGAFQNFNSYKYCVEQLFHCGPVILIDLPSMGANQQITNRDSGVSAAVLELPDLAKILVEWLDIIKIQKISMMGMSLGSVVASCFADLRPDMIDRLVLMGVMQKTRKSWRMILEESLKLMQENRMEEFGQAVILYLVNHAKLDQTRMSPTAKRLFFRQMAEFNPTERLRYEINCQRLLRLKDVPIPQCKTLVAAGQYDSFTLPFENANFALQCPDVEFALIANADHVPQLQRRKETMRLFETFLNH”, the protein production entry is given as “failed”.

In the case of “MGFLHKLWDETVAGPTPDNGLGKLRKHDSLSTVRSSPPSLSSDQVTRSIMVTKGNNNVRGLRKLKMDPDSPTCSSSNPGTPLTPGTPCYALGPFTAGKIPSSGEDDAASLTTYEWIVINALDR”, the protein production entry is listed as “failed”.

For the sequence “MLGLFLIFWGLLLLLSLATFDLRDPSLNHVVSNPTEIRNGAGMFGSYLGGMLADAFGIAAFLWPVGFIGLGARYIIVSFDIAWWRWAGLLALSLCMVTAGAAWELSLGDVNAGGVLGDLLYRFSWKALSPRGSTLVWLFLCIIGLQLTFDISWTALFRRIVDKVRADLEAHPVSRPQLPELKLPRLGLPSGLHLPGRKGAEGNAPATLAVVDVTPDGSDSTNGAPSVVAREASTPRGMPVETDDFVLSEDRLQPPASELPFEVVLDADTDGVADLTADVESDISEGAGRPKAKMRRKSQLPPLDLLHSALNEDSRPDREVLEGKGLSLTNCLSDFGVQGELTRITPGPVVTMFEFRPAPGVKVSRIANLSDDLALALKAIAVRIQAPIPGTDTVGIEIPNETRETVCFKELLSSDTFKGASSLLTLAIGKDIAGRPTVADLSKMPHLLVAGATGAGKSVCLNSILLSILYKARPEDVKLLLVDPKRIELAVYADLPHLVHPVVTEMAHAKNALDWAVHEMDKRYEGMARLGVRNIAGYNQKLEDMGKERPADLADLEAMPYLVIIIDELADLMLTAAKEVETSIVRLAQLARAAGIHLILATQRPSVDVVTGLIKANFPCRISFQVTSKHDSRTILDTVGAEFLLGKGDMLFKPSGGKLQRLHGAFVSDDDVNGVVAFWKKQQPPSYKVDFAEWGNEGTLDGNGGSGGAGDLADDPVYAEAVEFVMGQGRASISLIQRRFRIGFNRAARYVEQMEQDGIIGPADGSKPRSVIRGKE”, the protein production entry is listed as “failed”.

Consider “MSLTADPPACTVPAAGVSSTHKLVNGGAEKIVFKIKSSNNNEYRIAPVFGFVDPSGSKDVVITRTAGAPKEDKLVVHFASAPADATDAQAAFVAVAPAGTVTIPMSATA”, for which the protein production result is reported as “not failed”.

For the sequence “MKKVKIFSIVLPLIYTSFMLYVTYKVYNGLRYRSLDLGIFTQSLYSLSEGKLFYNTVEFQLYEVHTHFGVHFQPILFLLTPLFLIKRDAYTLIIIQTLALGTSVYLAYKLAVKELGEKKGFALAILYSCNSSLISINVFEFHPVSLAVPLFLLAYKFLREESPLFYVISTLILLTKEDAFLGVLSITAWKILKEGLSVETLKKNKKIILFTILTLLYGIFTIKVVIPKFGGEYIYSNLYMEPRLDRRKLTYFLLFNLTFALLPLLNFFAILSLLPPWLECLLASRESQTMFGFHYPYMLVPLSFVISLDVAKKLDWKILRNLAILGVISSLITLPITNHLPKEQNPLVYPTVITPIPGKEASWEAIKITRELEGPIYTQPEFYPALATRLDVYVYPKNVKPKIILVNLNTYYGRRALERIKAFRVNLSEYKKVFEKDGVLIMVRKD”, the protein production result is given as “failed”.

For the sequence “MISVAHSPDADDIFMYYAIKFGWIDCPIKNKAFHNIALDIETLNQEALKNTYDVSAISFGLYPKIANDYALLPTATSFGNGYGPKLVKKKGVKLKKDFRVALSGEHTTNALLFKIYYKHARITYMNFLDIEKAVLEEKVHAGVLIHESILDFHNELEVEKELWDVWKELIEVDLPLPLGGMAIRRSIPLYRAILIKKALIKAVEVALKHQNLLSGMLLERSLIRVNKERLRTYLSLYANETSTRLSEIQILAIDKLFELGYQHGFYASLLKTKDCLLTDEYLKYRFS”, the protein production entry is “failed”.

Take “MPSLTTLRSRELGPETFIPYVRHVDESTIALDSRALMVMIALEGVSFETADILDLNALHRDLNTLYRNIADERLALWTHLIRRRDNSYPEGTFATPFSAALNDKYRERMVGEDLFRNDLYLSILWSPARDPADKAAKLLSRLRRARRVGTELDEGALKHLRDKVIDVTAALRRFEPRVLTLYEHDGLMFSEPSEVLHQLVGGRREPIPLTEGHIASAIYSDRVIVGRETIEIRHEADSRYAGMLSFKEYPARTRTGMLDAVLTSPFELILAQSFSFVSKADARMIMGRKQNQMVSSGDKAASQIEELDGAMDDLESNRFVFGEHHLTLSVFAPSVKELTDNLAKARASMTSGGAVVAREDLGLEAAWWAQLPGNFRYRARSGAITSRNFAALSPFHSYPLGQKDGNEWGPAVALLKTASGSPYYFNFHYGDLGNTFVCGPSGAGKTVLLNFMLSQLEKHDPHVVFFDKDRGADLYVRAAGGTYLPLKNGIPTGCTPLKALELTPENKVFLTRWVGKLVGSATRELSVTELRDISSAIDGLADLPVERRTIGALRTFLDNTNPEGIAARLRRWERGGPLGWVFDNVIEDIGFGEFGGGKLVGYDMTDFLDNEEIRAPLMAYLFHRVEQLIDGRRIIIVIDEFWKALQDEGFRDLAQNKLKTIRKQNGLMLFATQSPRDAIVSPIAHTIIEQCPTQIFLPNSRGNHGDYVDGFKLTEREFELVARELSIESRRFVLKQGHNSVVAELDLKGLDDELAILSGRTANVELADAIRAEVGSNAKDWLPVFQQRRSATLEHHHHHH”: the protein production entry is listed as “failed”.

Turning to “MYLYLSLILLAFTLSLDSCSVGLTYGLRSVRIPLRSIIIIGMCSAAVMLVSMGIGHMIAKVFSPVIATRIGGLVLIGIGIWVLYQFFRSERKEEPKQEEKVWKLEIASLGLVIQILRKPTVADFDKSGTISAGEALLLGIALSVDSFGAGIGASLLGYAPAMMAILVAVMSSLFLFIGMKLGTVLSNMKWLQKFTFLPGVLLIIIGIWKM”, the protein production entry was “failed”.

As to “SGDERFTLRIKDLRTGELLPDIIEDIFYGVAFSPDGTRLFYTVVDDSWRPYQVKSHILGTPVAEDEVLYQEDDVAMWLGFDLSSDRRHLVLSIGCSEFSETRLLRFEDYDAGLHTVISREHHILYEAEPFLLDGKETLLLTHNKDAINSMVSLVDPAELSKPLAEQHWRTVVEHSDDVRVNGAGVTSTHLVLSVRKDTIERVQVLPLAGLGTATQGAPVEPAFHEELYTAGVSGSDYESPVIRMGYTSYFTPSRVYDFVLPTAEQPGGELLLRKESPVLGGYSASDYVATREWATADDGTQVPLSVLRHASVQQDGTAAGLVYGYGSYELSMDPGFGVARLSLLDRGIVMVIAHIRGGGELGRKWYEDGKKFTKKNTFTDFIAATDWLAGSGWVDPSRIAAMGGSAGGLLMGAVANMAPEKYAAVVAQVPFVDALTTILDPELPLSALEWEEWGNPITDPEAYAYMKSYTPYENVGAVPYPKIAAVTSFNDTRVLYVEPAKWVQALRSASTGSEPIVMKIEMDGGHGGASGRYVQWRERAWDYAFIADSVG”, the protein production entry was “failed”.

Turning to “MESFSSKSLALQAEKKLLSKMAGRSVAHLFIDETSSEVLDELYRVSKEYTHSRPQAQRVIKDLIKVAIKVAVLHRNGSFGPSELALATRFRQKLRQGAMTALSFGEVDFTFEAAVLAGLLTECRDVLLELVEHHLTPKSHGRIRHVFDHFSDPGLLTALYGPDFTQHLGKICDGLRKLLDEGKL”, the protein production entry was “failed”.

In the case of “MEYILYISRFLYRIRWWLLIGTAIITFAVYYFGKRMIGKTYNVEATLYTGAASGYNLEGGNNKVDWATTQNAMDNLMNIIKAESTLKRVSIRLYARSLIKGNPKEDNEFIKASNYNRIYEHLKNSPNGKEILSLIDKNSEDKTVANFFNYLRPTQANYLYGVFYYNLPYYSYNDLRAIRVARKGASDLIEISYTASDPGIAYNTIDILTKEFVNEYSAIRYGETDKVIEYFKSELQRIGKELRLKEDSLTQYNVEKRVINYYDETKEIAAINKEFELREQNVLIAYNSAKAMLNELEKQMGSNAKHVINNLQFLDKLNEAASLTGKISEMETISSDHQNQEASLQEYKNRLNQTRKELSELSNKYVENKYTKEGIAKENIIEQWLEVTMQYEKAKSDLQIIQQSRIDLNEKYRQFAPVGSTIKRQERNITFIEQNYLSVLKSYNDALMRRKNLEMTSAALKVLNAPAYPISAMPTPLKKMVMAACAGTFLFILGFFLILELLDRTLRDSIRTRRLIGLPMLGAFPKDSILEYHNHVEESKSIATKQLSNSILRFCQQKKEGLPYIINFISTEGGEGKSYVIEALKKYWNSIGLKTKVITWKSDFRIDSREYNLAKSITDLYTSEEEDILIVEYPNLREASISLELLQEANLNILVARADRGWKETDKLLSEKLSQQVGKTPLYVYLTHASRNVVEDYTGMLPPYTLWRKIVYRLSQLALTESIFTFTKRKKQPATSGDEDDE”, the protein production result was “failed”.
